Measured values taken from patent publication US10487110B2, “Stabilized compounds having secondary structure motifs” (President and Fellows of Harvard College, priority 1999, dated 2019).
Bridge positions count the residues as written; N and C are the ends. Square brackets hold non-standard residues; d marks the D form. R‑13 = (R)-2-(2'-pentenyl)alanine; R‑14 = (R)-2-(2′-hexenyl)alanine; S‑14 = (S)-2-(2′-hexenyl)alanine; S‑16 = (S)-2-(2′-octenyl)alanine

Legend:
[1] = Circular dichroism measure of helical content; format: physicochemical
Description: Circular dichroism: Circular dichroism spectra were collected on a Jasco J-710 spectropolarimeter at 4° C. A typical sample was prepared by lyophilizing a measured volume of peptide solution and then resuspending it in 3 ml of 0.1% TFA in water to obtain a solution with a 280 nm absorbance of approximately 0.06 absorbance units. The sample was placed in a 1 cm CD cuvette and the ultraviolet absorbance was measured. The circular dichroism spectrum was measured and a baseline CD spectrum of 0.1% TFA in water was subtracted from it. The baseline subtracted CD spectrum was then normalized using the 280 nm absorbance.

[2] = tested on: trypsin; experiment: Peptide trypsin digest (cleavage rate constants); format: in vitro ADME; conditions: 10% EtOH in 50 mM Tris pH 8.3, room temperature; for Cleavage rate constant, Unmetathesized: unmetathesized peptide; for Cleavage rate constant, Metathesized and hydrogenated: metathesized and hydrogenated peptide
Description: Peptide trypsin digest: A typical peptide trypsin digest experiment was performed by adding 5 μL of a 20× trypsin solution in 1 mM HCl to a 100 μL solution of peptide at 9 μM in 10% EtOH in 50 mM Tris at pH 8.3. The reaction was allowed to proceed at room temperature for 30 min at which time it was quenched by adding 100 μL of a 1% trifluoroacetic acid solution and frozen on dry ice. The sample was then thawed and injected into a reverse phase HPLC on a C18 column for quantitation at 280 nm. The cleavage rate constants were obtained by performing the digest experiments at multiple trypsin concentrations and fitting to a kinetic model that is first order in both enzyme and substrate concentration.

[3] = Sedimentation equilibrium (analytical centrifugation); format: physicochemical; conditions: conditions of the circular dichroism experiments, 4° C.
Description: Analytical centrifugation: Sedimentation Equilibrium Experiments were performed on a Beckman Optima XL-A analytical centrifuge. The samples were centrifuged at 35,000 RPM at 4° C. and monitored at 280 nm. The data was fit to a single species model. The sedimentation equilibrium experiments were run on the identical samples from which circular dichroism spectra were recorded.

[4] = crosslinked versus corresponding uncrosslinked modified peptide

Ac-EWAETAAAKFLAAHA-NH2 [Control, reference compound]
helical content (α-helicity) ([1]; circular dichroism, water containing 0.1% trifluoroacetic acid, 4° C.): ~40% | Cleavage rate constant, Unmetathesized [2]: 2.39 M⁻¹ s⁻¹ | Cleavage rate constant, Unmetathesized ([2]; listed as unmodified control peptide): 2.38 M⁻¹ s⁻¹

Ri,i+7S(9): Ac-EWAEyAAAKFLzAHA-NH2 (SEQ ID NO: 2), (y,z) = (R-13,S-14), 9 carbon crosslink (Ac-EWAE[R‑13]AAAKFL[S‑14]AHA-NH2; staple 5-12)
decrease of helical content following RCM [1, 4]: 21% | Cleavage rate constant, Metathesized and hydrogenated [2]: 0.37 M⁻¹ s⁻¹

Ri,i+7S(10): Ac-EWAEyAAAKFLzAHA-NH2 (SEQ ID NO: 2), (y,z) = (R-14,S-14), 10 carbon crosslink (Ac-EWAE[R‑14]AAAKFL[S‑14]AHA-NH2; staple 5-12)
decrease of helical content following RCM [1, 4]: 12% | Cleavage rate constant, Metathesized and hydrogenated [2]: 0.34 M⁻¹ s⁻¹

Ri,i+7S(11): Ac-EWAEyAAAKFLzAHA-NH2 (SEQ ID NO: 2), (y,z) = (R-13,S-16), 11 carbon crosslink (Ac-EWAE[R‑13]AAAKFL[S‑16]AHA-NH2; staple 5-12)
helix stabilization (result in words) ([1]; circular dichroism): best helix stabilizer | increase of helical content following RCM ([1]; crosslinked versus corresponding uncrosslinked modified peptide, for Ri,i+7S(12) cis and trans double bond isomers): 26% | increase of helical structure compared to unmodified control peptide ([1]; versus unmodified control peptide): 44% | oligomeric state by sedimentation equilibrium [3]: monomeric | Cleavage rate constant, Metathesized and hydrogenated [2]: 0.058 M⁻¹ s⁻¹ | Cleavage rate constant, Unmetathesized [2]: 0.50 M⁻¹ s⁻¹

Ri,i+7S(12): Ac-EWAEyAAAKFLzAHA-NH2 (SEQ ID NO: 2), (y,z) = (R-14,S-16), 12 carbon crosslink; cis and trans isomers (Ac-EWAE[R‑14]AAAKFL[S‑16]AHA-NH2; staple 5-12; also: cis and trans olefin isomers)
Cleavage rate constant, Metathesized and hydrogenated [2]: 0.12 M⁻¹ s⁻¹
